Data from US20260250338A1.

Molecular target: CD16aF allelic variant of CD16a expressed on Jurkat cells (human) (UniProt P08637)
Assay: flow cytometry on Jurkat cells expressing CD16aF, conditions as in Example 2

Chain of CD16aF allelic variant of CD16a expressed on Jurkat cells (human) (P08637 17-254, change not shown): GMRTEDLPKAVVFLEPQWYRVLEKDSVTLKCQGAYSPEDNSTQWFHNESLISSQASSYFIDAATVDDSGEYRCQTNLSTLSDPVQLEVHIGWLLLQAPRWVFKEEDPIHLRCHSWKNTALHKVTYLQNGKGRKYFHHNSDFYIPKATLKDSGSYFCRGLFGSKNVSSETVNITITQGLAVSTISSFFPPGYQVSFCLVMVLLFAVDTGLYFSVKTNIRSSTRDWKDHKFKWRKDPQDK

B1: Construct 25 (SEQ ID NO: 94), CD117 × CD16a, CD117 binder SEQ ID NO: 84 N-terminal of DARPin #7 (designed binder)
chain: MRGSHHHHHHGSDLGQKLLKAAQYGQDDEVRILLAAGADVNAKDWAGKTPLHVAAEAGHLEIVEVLLKAGADVNAKDKAGETPLHLAAEQGHLEIVEVLLKAGADVNAQDEWGQTPADLAAYYGLEDIAEVLQKAAGSPTPTPTTPTPTPTTPTPTPTGSDLGQKLLRAAKKGQDDEVRELLKAGADVNAKDEQGWTPLHNAAWKGHLEIVEVLLKAGADVNAKDVFDWTPLHVAAHFGHLEIVEVLLKAGADVNAQDRAGETPADLAAQAGHEDIAEVLQKAA
EC50: 23.2 nM
